# Experimental data as given in patent US20020107196A1.
# Target: human CXCR4 receptor (human)
# Test: cell-based or functional assay
# Sequence of stromal cell derived factor-1α (SDF-1α) (ligand) (chain): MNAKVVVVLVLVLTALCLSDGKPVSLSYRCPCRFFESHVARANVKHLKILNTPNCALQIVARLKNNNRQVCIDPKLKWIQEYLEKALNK
substance,measurement,value
stromal cell derived factor-1α (SDF-1α) (ligand),EC50 of HUVEC migration (Transwell chemotaxis),10 to 20 nM
same,elevation of [Ca+2]i in HUVEC (fura-2 fluorescence); concentration of maximal response,100 nM
same,percent migration of input EC (Transwell chemotaxis),40%
